Test results from patent US7435413 (dated 2008).

Target: T1, sTF (soluble human tissue factor 1-219) (human)
T1 chain: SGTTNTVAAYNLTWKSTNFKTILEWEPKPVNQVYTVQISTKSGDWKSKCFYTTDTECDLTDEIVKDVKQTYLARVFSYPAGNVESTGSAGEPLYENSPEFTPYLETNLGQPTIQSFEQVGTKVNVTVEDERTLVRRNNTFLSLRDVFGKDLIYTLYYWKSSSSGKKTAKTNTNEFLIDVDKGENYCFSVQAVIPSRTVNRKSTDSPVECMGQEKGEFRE
Experiment: SPR

B1: 5G6 (antibody, V domains shown)
VH: EVLLQQSGPELVKPGASVKIPCKASGYTFTEYNMDWVKQSHGKSLEWIGDINPNNGNTIYNQKFKGKATLTVDKSSTTAYLELRSLTSEDTAVYFCARDHDYYFDFWGQGTTLTVSS
VL: DIQMTQTPASQSASLGESVTITCLASQTIDTWLAWYQQKPGKSPQLLIYAATSLADGVPSRFSGSGSGTKFSFKISSLQAEDFVSYYCQQPYSSPYTFGGGTKLELKR
In the case of B1, the Kd is reported as 1.7 nM.
